Measurements: paper PMC5327412, “Characterization of the CD177 interaction with the ANCA antigen proteinase 3” (Scientific Reports, 2017)
Like-named read-outs stand apart in the source and are kept apart here.

T1: recombinant CD177 (UniProt Q8N6Q3 22-408)
T1 construct: CD177, GPI-anchored neutrophil membrane receptor; recombinant soluble form that lacks the C-terminal GPI-anchor domain; secreted via an N-terminal Ig1 secretion signal peptide; Made from plasmid pTT5; also called rCD177; not shown: Fc (human Ig1), C-terminal, cleaved
T1 sequence (looked up): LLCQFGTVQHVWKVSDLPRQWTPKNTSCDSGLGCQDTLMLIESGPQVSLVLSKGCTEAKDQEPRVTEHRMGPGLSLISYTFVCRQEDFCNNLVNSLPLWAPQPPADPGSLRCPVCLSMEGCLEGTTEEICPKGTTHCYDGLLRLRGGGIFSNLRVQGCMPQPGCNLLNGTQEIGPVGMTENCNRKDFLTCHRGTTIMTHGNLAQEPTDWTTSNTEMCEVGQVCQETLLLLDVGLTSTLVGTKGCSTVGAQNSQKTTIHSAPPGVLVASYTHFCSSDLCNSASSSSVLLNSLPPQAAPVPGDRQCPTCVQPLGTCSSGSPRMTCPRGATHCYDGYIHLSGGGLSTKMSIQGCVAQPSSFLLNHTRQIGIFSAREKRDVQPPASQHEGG


Target: T1, recombinant CD177
Test: SPR; CD177 immobilised on a GLH sensor chip by standard amine chemistry, PR3 as soluble analyte; ProteOn XPR36

Molecule | Kd [nM] | Kd (both partners purified) [nM]
monomeric PR3 hydrophobic patch mutant (Ile217Ala, Trp218Ala) (enzyme) | 57 | –
recombinant PR3 (enzyme) | 4.1 | –
neutrophil-derived PR3 (enzyme, UniProt P24158 28-248, looked up, Proteinase 3 (PR3), neutrophil serine protease, purified from neutrophils, proteolytically active; also called nPR3; proteinase 3; source: bought: Athens Research&Technology; neutrophil-derived) IVGGHEAQPHSRPYMASLQMRGNPGSHFCGGTLIHPSFVLTAAHCLRDIPQRLVNVVLGAHNVRTQEPTQQHFSVAQVFLNNYDAENKLNDVLLIQLSSPANLSASVATVQLPQQDQPVPHGTQCLAMGWGRVGAHDPPAQVLQELNVTVVTFFCRPHNICTFVPRRKAGICFGDSGGPLICDGIIQGIDSFVIWGCATRLFPDFFTRVALYVDWIRSTLR | – | 4.1
